Test results from paper PMC8290868 (Cell Discovery, 2021).

Biological target: T1, SARS-CoV-2 S protein extracellular domain (S-ECD), prefusion-stabilised trimer (SARS-CoV-2, Wuhan-Hu-1 (wild type), UniProt P0DTC2, proline substitution at residue 986 | proline substitution at residue 987 | …)
T1 construct: also called trimeric SARS-CoV-2 S protein; S trimer
Assay: cryo-EM structure
Conditions: both partners purified

B1: 7B8 Fab fragment (Fab, V domains shown)
VH: QVQLVESGGGVVQPGRSLRLSCAASGFIFSSYGMHWVRQAPGKGLEWVAVIWFDGSNKYYADSVKGRFTISRDNSKNTLYLQMNSLRAEDTAVYYCARETVSYGMDVWGQGTTVTVSS
VL: NIQMTQSPSAMSASVGDRVTITCRARQGISNYLAWFQQKPGKVPKHLIYAASSLLSGVPSRFSGSGSETEFTLTISSLQPEDFATYYCLQHNSYPYTFGQGTKLEIK
notes: also called Ab4
binding result: binds
